The data set relates to ATP. The data set is described as follows: switch fluorescence ratio, 500 uM ATP over buffer (Cy3 cluster intensity, sum of 5 cycles each) (fold (ratio)); higher = stronger signal-on switching upon ATP binding; sequences stand for … in TCGTCGGCAGCGTCAGATGTGTATAAGAGACAGTTTTTTTTTTTTTTTTTTTTTTTTT…TC. The note with it: aptamer strand: ATP DNA aptamer (quencher-CACCTGGGGGAGTATTGCGGAGGAAGG + anchor), 100 nM annealed; ATP concentration: 500 uM. In short, it runs like this: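 Imaging in selection buffer was followed by imaging after 15 min with 500 uM ATP at 22 °C, for Cy3-labelled switching-strand clusters annealed to 100 nM quencher-labelled ATP aptamer on a modified Illumina MiSeq flow-cell. Five of these buffer/ATP cycles ran, separated by NaOH stripping and re-annealing. The fluorescence ratio per cluster is summed target-cycle over summed buffer-cycle Cy3 intensity, averaged per switch-domain sequence; clusters outside 100-1000 RFU were removed.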

Drawing on the supplement of paper PMC10126150, this text covers switch fluorescence ratio for 120 sequences.

± gives the standard deviation of the averaged measurements.
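Further: ATP exposure 15 min at 22 °C before imaging.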

Regarding TTAAGATGCT, the switch fluorescence ratio was 0.997 ± 0.036.

Take TTAAGATGGT: the switch fluorescence ratio came out at 0.983 ± 0.029.

On to TTAAGCATGT, for which the switch fluorescence ratio came to 1.01 ± 0.017.

Turning to TTAAGCCTTT, the switch fluorescence ratio came to 1.02 ± 0.034.

Regarding TTAAGCGAAG, the switch fluorescence ratio came out at 0.953 ± 0.029.

With TTAAGCGGAG, the switch fluorescence ratio is 1.0092 ± 0.00077.

On to TTAAGGATA, for which the switch fluorescence ratio amounted to 1.01 ± 0.036.

With TTAAGGCAAA, the switch fluorescence ratio amounted to 1.03 ± 0.019.

For TTAAGGCATT, the switch fluorescence ratio is 1.06 ± 0.03.

As for TTAAGGCTTA, the switch fluorescence ratio stood at 1.01 ± 0.044.

Consider TTAAGGGGAC, for which the switch fluorescence ratio amounted to 1.04 ± 0.037.

Regarding TTAAGGGGAT, the switch fluorescence ratio is 1 ± 0.032.

As for TTAAGGGGGA, the switch fluorescence ratio is 1.01 ± 0.025.

On to TTAAGGGGGT, for which the switch fluorescence ratio stood at 1.03 ± 0.08.

As for TTAAGGTTGG, the switch fluorescence ratio came to 0.993 ± 0.031.

For TTAAGTATTG, the switch fluorescence ratio came to 0.9956 ± 0.0079.

Turning to TTAAGTGTGA, the switch fluorescence ratio worked out at 0.982 ± 0.013.

As for TTAAGTTAGG, the switch fluorescence ratio was determined as 1.02 ± 0.012.

Take TTAAGTTGTT: the switch fluorescence ratio was 0.965 ± 0.016.

As for TTAATAACTT, the switch fluorescence ratio is 1.01 ± 0.019.

Regarding TTAATAATAA, the switch fluorescence ratio amounted to 1 ± 0.034.

Take TTAATACTTG: the switch fluorescence ratio was 1.03 ± 0.018.

For TTAATAGGG, the switch fluorescence ratio turned out to be 1 ± 0.022.

As for TTAATAGGTG, the switch fluorescence ratio was determined as 1.14 ± 0.015.

For the sequence TTAATATGGA, the switch fluorescence ratio stood at 0.999 ± 0.012.

On to TTAATATTAC, for which the switch fluorescence ratio amounted to 1.01 ± 0.014.

In the case of TTAATATTTG, the switch fluorescence ratio is 1.01 ± 0.041.

TTAATCGGTT: the switch fluorescence ratio stood at 1.005 ± 0.01.

Turning to TTAATGCGCA, the switch fluorescence ratio is 1 ± 0.019.

Take TTAATGCTGG: the switch fluorescence ratio was found to be 1 ± 0.033.

On to TTAATGGCGA, for which the switch fluorescence ratio is 0.986 ± 0.033.

As to TTAATGGGGG, the switch fluorescence ratio amounted to 1.06 ± 0.25.

In the case of TTAATGTGCG, the switch fluorescence ratio stood at 1.01 ± 0.023.

TTAATGTGGG: the switch fluorescence ratio stood at 0.995 ± 0.014.

On to TTAATTATCA, for which the switch fluorescence ratio was 0.998 ± 0.018.

For TTAATTCCGT, the switch fluorescence ratio was found to be 1.02 ± 0.032.

On to TTAATTCTGG, for which the switch fluorescence ratio came out at 0.9976 ± 0.0034.

Turning to TTAATTGACA, the switch fluorescence ratio came out at 1.064 ± 0.0092.

As for TTAATTGAGT, the switch fluorescence ratio turned out to be 1.012 ± 0.0018.

Turning to TTAATTGATG, the switch fluorescence ratio came out at 1.01 ± 0.014.

TTAATTGGTG: the switch fluorescence ratio worked out at 1.021 ± 0.009.

On to TTAATTTACA, for which the switch fluorescence ratio was 1.09 ± 0.044.

Consider TTAATTTACT, for which the switch fluorescence ratio was determined as 1.08 ± 0.043.

TTAATTTAG: the switch fluorescence ratio amounted to 0.985 ± 0.027.

TTAATTTCAG: the switch fluorescence ratio turned out to be 1.01 ± 0.023.

TTAATTTCTA: the switch fluorescence ratio was 0.9901 ± 0.0058.

Turning to TTACAAGAGG, the switch fluorescence ratio stood at 0.989 ± 0.024.

As for TTACACGGGG, the switch fluorescence ratio is 0.969 ± 0.036.

For the sequence TTACAGGACG, the switch fluorescence ratio was 1.2 ± 0.22.

In the case of TTACAGGGCT, the switch fluorescence ratio came out at 1.037 ± 0.0038.

As for TTACAGGGGG, the switch fluorescence ratio was 1.03 ± 0.057.

In the case of TTACATAATT, the switch fluorescence ratio was 1.02 ± 0.044.

As for TTACATCTGG, the switch fluorescence ratio worked out at 0.9842 ± 0.007.

Take TTACATGTAG: the switch fluorescence ratio was found to be 1.04 ± 0.013.

Consider TTACCAAAAC, for which the switch fluorescence ratio was 1.41 ± 0.54.

As to TTACCAGAGT, the switch fluorescence ratio came out at 1.02 ± 0.011.

For TTACCATTCG, the switch fluorescence ratio came to 1.02 ± 0.019.

Turning to TTACCGTGTT, the switch fluorescence ratio amounted to 1.08 ± 0.037.

With TTACGACGCA, the switch fluorescence ratio stood at 3.67 ± 0.76.

For TTACGACTGT, the switch fluorescence ratio was determined as 1.004 ± 0.0014.

Take TTACGAGATT: the switch fluorescence ratio came to 1.01 ± 0.068.

TTACGAGTGG: the switch fluorescence ratio was found to be 1.02 ± 0.025.

With TTACGATTTT, the switch fluorescence ratio is 0.993 ± 0.039.

Take TTACGCATCA: the switch fluorescence ratio worked out at 1.14 ± 0.021.

Take TTACGCCCTT: the switch fluorescence ratio was found to be 1.11 ± 0.08.

As to TTACGGAACT, the switch fluorescence ratio stood at 1.164 ± 0.0041.

In the case of TTACGGAAGT, the switch fluorescence ratio worked out at 1.11 ± 0.13.

With TTACGGAAT, the switch fluorescence ratio came out at 1.1 ± 0.14.

For the sequence TTACGGACGA, the switch fluorescence ratio was determined as 1.317 ± 0.0043.

Consider TTACGGCGCT, for which the switch fluorescence ratio worked out at 1.06 ± 0.062.

Take TTACGGGGAT: the switch fluorescence ratio is 1.04 ± 0.016.

As to TTACGGGGGG, the switch fluorescence ratio stood at 1.02 ± 0.052.

As for TTACGGGTCC, the switch fluorescence ratio worked out at 0.961 ± 0.012.

Consider TTACGGTCCC, for which the switch fluorescence ratio is 1.19 ± 0.24.

TTACGGTCTA: the switch fluorescence ratio was found to be 1.03 ± 0.013.

Consider TTACGGTGTC, for which the switch fluorescence ratio is 1.02 ± 0.025.

In the case of TTACGGTGTT, the switch fluorescence ratio came out at 1.1 ± 0.099.

Turning to TTACGTAATA, the switch fluorescence ratio came to 1.34 ± 0.023.

Consider TTACGTGGGA, for which the switch fluorescence ratio came out at 1.02 ± 0.026.

For TTACGTGTCG, the switch fluorescence ratio came to 1.01 ± 0.068.

Regarding TTACTATTTG, the switch fluorescence ratio stood at 0.961 ± 0.052.

Turning to TTACTCATTT, the switch fluorescence ratio was found to be 1.017 ± 0.0018.

On to TTACTGGAAC, for which the switch fluorescence ratio came out at 1.06 ± 0.021.

With TTACTGGGGC, the switch fluorescence ratio worked out at 1.03 ± 0.03.

In the case of TTACTTCTGG, the switch fluorescence ratio was found to be 0.9796 ± 0.0017.

Consider TTACTTGACT, for which the switch fluorescence ratio was found to be 1.116 ± 0.0085.

Turning to TTACTTGGGT, the switch fluorescence ratio is 1.02 ± 0.052.

Consider TTACTTTGAG, for which the switch fluorescence ratio worked out at 1.02 ± 0.048.

For TTACTTTGGA, the switch fluorescence ratio came to 1.03 ± 0.023.

Consider TTACTTTTTT, for which the switch fluorescence ratio was 1.02 ± 0.033.

Consider TTAGAAAGCA, for which the switch fluorescence ratio worked out at 1 ± 0.033.

As to TTAGAAAGGA, the switch fluorescence ratio came out at 1.01 ± 0.025.

As to TTAGAAGATT, the switch fluorescence ratio is 1 ± 0.044.

Take TTAGAAGGTG: the switch fluorescence ratio stood at 1.16 ± 0.078.

As to TTAGAAGGTT, the switch fluorescence ratio came out at 1 ± 0.026.

TTAGACCGAA: the switch fluorescence ratio worked out at 1.031 ± 0.0088.

Consider TTAGACGATT, for which the switch fluorescence ratio was determined as 0.998 ± 0.025.

As to TTAGACGCTT, the switch fluorescence ratio stood at 1 ± 0.011.

TTAGACGGC: the switch fluorescence ratio stood at 0.978 ± 0.097.

As for TTAGAGAAAA, the switch fluorescence ratio turned out to be 1.03 ± 0.079.

Turning to TTAGAGGGTT, the switch fluorescence ratio was 1.01 ± 0.031.

Turning to TTAGAGTAGT, the switch fluorescence ratio was determined as 0.988 ± 0.013.

As to TTAGAGTATG, the switch fluorescence ratio came out at 1.0206 ± 0.0007.

In the case of TTAGAGTGGA, the switch fluorescence ratio came to 0.968 ± 0.024.

Take TTAGATTGGT: the switch fluorescence ratio came out at 0.99 ± 0.033.

As for TTAGATTTTT, the switch fluorescence ratio came to 1.002 ± 0.0087.

For the sequence TTAGCAAAAA, the switch fluorescence ratio came out at 1.1 ± 0.075.

In the case of TTAGCATATT, the switch fluorescence ratio came out at 1.01 ± 0.021.

TTAGCCGCGG: the switch fluorescence ratio was determined as 0.997 ± 0.016.

As for TTAGCCTCTT, the switch fluorescence ratio is 0.996 ± 0.032.

Consider TTAGCGAGGC, for which the switch fluorescence ratio was found to be 2.13 ± 1.2.

On to TTAGCGGGA, for which the switch fluorescence ratio worked out at 1 ± 0.023.

In the case of TTAGCTACTG, the switch fluorescence ratio turned out to be 1.03 ± 0.056.

As for TTAGCTCATT, the switch fluorescence ratio came to 1 ± 0.02.

As for TTAGCTTGAG, the switch fluorescence ratio amounted to 1.01 ± 0.013.

TTAGCTTGCT: the switch fluorescence ratio is 1.019 ± 0.0035.

TTAGGAAGTG: the switch fluorescence ratio came out at 0.999 ± 0.017.

For the sequence TTAGGAATGG, the switch fluorescence ratio was 1.005 ± 0.0015.

For TTAGGACTAG, the switch fluorescence ratio was determined as 0.9698 ± 0.0048.

As for TTAGGACTT, the switch fluorescence ratio is 1.02 ± 0.073.
